Where “and” joins values, the source holds several entries; their conditions need not be identical. Equal entries are not always repeated.

This data set concerns the molecule itself. In words: high-speed atomic force microscopy (HS-AFM); purified protein (approximately 3 nM) deposited on mica for 10 min, rinsed, imaged in 1/10 diluted PBS in tapping mode; oligomeric state from total pixel density, number of globules and behaviour in time-lapse images; molecules counted as monomer, dimer or trimer in broad fields; formation and dissociation seen in real time (reversible).

B1: EML4-ALK variant-1 (v1, E13:A20) (natural protein, human, UniProt Q9HC35 1-496, looked up)
chain: MDGFAGSLDDSISAASTSDVQDRLSALESRVQQQEDEITVLKAALADVLRRLAISEDHVASVKKSVSSKGQPSPRAVIPMSCITNGSGANRKPSHTSAVSIAGKETLSSAAKSGTEKKKEKPQGQREKKEESHSNDQSPQIRASPSPQPSSQPLQIHRQTPESKNATPTKSIKRPSPAEKSHNSWENSDDSRNKLSKIPSTPKLIPKVTKTADKHKDVIINQEGEYIKMFMRGRPITMFIPSDVDNYDDIRTELPPEKLKLEWAYGYRGKDCRANVYLLPTGKIVYFIASVVVLFNYEERTQRHYLGHTDCVKCLAIHPDKIRIATGQIAGVDKDGRPLQPHVRVWDSVTLSTLQIIGLGTFERGVGCLDFSKADSGVHLCIIDDSNEHMLTVWDWQKKAKGAEIKTTNEVVLAVEFHPTDANTIITCGKSHIFFWTWSGNSLTRKQGIFGKYEKPKFVQCLAFLGNGDVLTGDSGGVMLIWSKTTVEPTPGKGPKVYRRKHQELQAMQMELQSPEYKLSKLRTSTIMTDYNPNYCFAGKTSSISDLKEVPRKNITLIRGLGHGAFGEVYEGQVSGMPNDPSPLQVAVKTLPEVCSEQDELDFLMEALIISKFNHQNIVRCIGVSLQSLPRFILLELMAGGDLKSFLRETRPRPSQPSSLAMLDLLHVARDIACGCQYLEENHFIHRDIAARNCLLTCPGPGRVAKIGDFGMARDIYRASYYRKGGCAMLPVKWMPPEAFMEGIFTSKTDTWSFGVLLWEIFSLGYMPYPSKSNQEVLEFVTSGGRMDPPKNCPGPVYRIMTQCWQHQPEDRPNFAIILERIEYCTQDPDVINTALPIEYGPLVEEEEKVPVRPKDPEGVPPLLVSQQAKREEERSPAAPPPLPTTSSGKAAKKPTAAEISVRVPRGPAVEGGHVNMAFSQSNPPSELHKVHGSRNKPTSLWNPTYGSWFTEKPTKKNNPIAKKEPHDRGNLGLEGSCTVPPNVATGRLPGASLLLEPSSLTANMKEVPLFRLRHFPCGNVNYGYQQQGLPLEAATAPGAGHYEDTILKSKNSMNQPGP
notes: EML4, N-terminal part up to exon 13 (E13:A20): CC/TD domain, basic region, part of the TAPE domain (HELP, WD repeats); ALK, from exon 20 (A20) to the C-terminus, residues 1058-1620, holds the tyrosine kinase domain; ENLYFQ probably stays; also called EML4-ALK v1; source: Expi293F, transfected, purified (anti-FLAG M2 gel, TEV protease and His-tag beads, Superdex 200 SEC); not shown: His tag …
One may read the stoichiometry N as a count of units in the complex or per binding partner. Turning to B1, the ratio of dimers came to 15%; the ratio of trimers came to 9%; the “stoichiometry N” value is 2 and 3.
